Test: yeast display, Sf9 membrane polyspecificity reagent, FACS + sequencing; frameworks hold sequencing errors
Outline: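 Using colony PCR, genes from sorted yeast display clones were amplified, then sequenced on MiSeq at 2 × 250 and filtered by CDR length. The clones had been stained with 10% biotinylated, detergent-solubilized Sf9 membrane reagent for 1 hour at 4 °C and sorted by FACS into low and high (top ~1%) gates on anti-HA and streptavidin fluorescence. Polyreactivity labels come from the gate of origin.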

Row | Sequence | polyreactivity (PSR sort gate)
1 | QVQLVESGGGLVQAGGSLRLSCAASGRIFTFYAMGWYRQAPGKARELVASITGGGNTYYADSVKGRFTISRDNAKNTVYLQMNSLKPEDTAVYYCNADEWRWDEIIPYAVDYWGQGTQVTVSS | low polyreactivity
2 | QVQLVESGGGLVQAGGSLRLSCAASGFTYTYAMGWYIQAPGKERELVAAISKSGGRTYYADSVKGRFTISRDNAKNTVYLQMNSLKPEDTAVYYCAADYSSTYDYWGQGTQVTVSS | high polyreactivity
3 | QDQLVESGGGLVQEGGSLRLSCAASVRIFGPYAMGWYRQAPGKERELLAAITRGGSTSYADSVKGRFTISRDNAKNTVYLQMNSLKPEDTAVYYCAADTLRWWDGFDYWGQGTQVTVST | low polyreactivity
4 | QVQLVESGGGLVQAGGSLRLSCAASGRIFSVNAMGWYRQAPGKERELVAAITSGGRTNYADSVKGRFTISRDNAKNTFYLQMNSLKPEDTAVYYCAAPYLKGGEDDYWGQGTQVTVSS | high polyreactivity
5 | QDQHVESGGGLVQAGGSLRLSCAASGSTFAFYAMGWYRQAPGKERELVAAINYGGTSTYYADSVKGRFTISRDNAKNTVYLQMNSLKPEDTAVYYCAARRPTSPRRYESWGQGTQVTVSS | high polyreactivity
6 | QLQLVESGGGLDQAGGSLRLSCAASGGTFFKNAMGWYRQAPGNERELVAVIDTISTSTYYAESVKGRFTISRDNAKNTVYLQMNSLKPEDTAVYYCAAEYGPGLTEGLYYYWGQGTQVTVSS | high polyreactivity
7 | QVQLVESGGGLVQAGGSLRLSCAASGSTLYVYTMGWYRQAPGKERELVATINTSGSRTYYADSVKGRFTISRDNAKNTVYLQMNSLKPEDTAVYYCAAEYVGKGTPDDYDYWGQGTQVTVSS | high polyreactivity
8 | QVQLVESGGGLVQAGGSLRLSCAASGSIFPGYAMGWYRPAPGKERELVAAITDSGVSTYYADSVKGRFTISRDNAKNTVYLQMNSLKPEDTAVYYCARDNWQWYPSTWYDYWGQGTQVTVSS | high polyreactivity
9 | QVQLVESGGGLVQAGGSLRLSCAASGSTFRFYAMGWYRQAPGKERELVAAINGSGGSTYYADSVKGRFTISRDIAKNSVYLQMNSLKPEDTAVYYCAVLYRYGYDYWGQGTQVTVSS | low polyreactivity
10 | QVQLVESGGGLVQAGGRLRLSWAASGSTFFGNAMGWYRQAPGKERELVAVITKGGGSTYYADSVKGRFTISRDNAKNTVYLQMNSLKPEDTAVYYCAKTYTSGYHRRYDYWGQGTQVTVSS | low polyreactivity
11 | QVQRVESGGGIVQAGGSLRLTCAASGITFVSYTIGWSRQAPGKEREFVAAITWNVASTYYADSVKGRFTISRDNAKNTVYLQMNSLKPEDTAVYYCAAYSRFTSDYWGQGTQVTVSS | high polyreactivity
12 | QVQLVESGGGLVQAGGSLRLSCAASGFTFSRNVMGWYRQAPGKERELVADITLSGASTYYADSVKGRFTISRDNAKNTVYLQMNSLKPEDTADYYCAADPYHWRWGWRHDYWGQGTQVTVSS | low polyreactivity
13 | QVQLVESGGGLVQAGGSLRLSCAASGFILGTNAMGWYRQAPGKERELVAAISSGGGSTYYADSVMGRFTISRDNAKNTVYLQMNSQKPEDTAVYYCAADNVWGYPEDDYWGQGTQVTVSS | low polyreactivity
14 | QVQLVESVGGLVQAGGSLRLSCAASGRTFAAYAMGWYRQAPGKERELVAGITSSSVRTYYADSVKGRFTISRDNAKNTVYLQMNSLKPEDTAVYYCNARADGSSSRWRPYSKFYYWGQGTQVTVSS | low polyreactivity
15 | QVQLVESGGGLVQAGGSLRLSCAASGRILWSYAMGWYRQAPGKERELVASISGRGGSTYYADSVKGRFTISRDNAKNTVYLQMNSLKPEDTAVYYCAAYRLRFWSMDYWGQGTQVTVSS | high polyreactivity
16 | QVQLVESGGGLVQAGGSLRLSCAASGLTFYSYAMGWYRQAPGKERELVAAITISGGSTYADSVKGRFTISRDNAKNTVYLQMNSLKPEDTAVYYCAVDDFRNPDYDSWGQGTQVTVSS | low polyreactivity

Row | Sequence | polyreactivity (PSR sort gate)
17 | QVQLVESGGGLVQAGGSLRLSCAASGRTFYKYAMGWSRQAPGKERELVAAISSDGTTYYADSVKGRFTISRDNAKNTVYLQMNSLKPEDTAVYYCAADPPPPFLYVSVQEYDYWGQGTQVTVSS | low polyreactivity
18 | QVQLQESGGGLVQAGGSLRLSCAASGTISPLPAMGWYRQAPGKEREFVAGIDTGAITNYADSVKGRFTISRDNAKNTVYLQMNSLIPEDTAVYYCAVFPAAYDYYERYYTYWGQGTQVTVSS | low polyreactivity
19 | QVQLVESGGGLVQAGGSLRLSCAASGSIFAIYAMGWYRQAPGKERELVAAISSSSGSTYYADSVKARFTISRDNAKNTVYLQMYSLKPEDTAVYYCAAESGRRIKYWRGYYYWGQGTQVTVSS | low polyreactivity
20 | QVQLVESGGGLVQAGGSLRLSCAASGSTYYNAMGWYRQAPGKERELVAAIRFRSGSTYYADSVKGRFTISRDNAKNTVYLQMNSLKPEDTAVYYCNKVPYRGYRRYGYWGQGTQVTVSS | high polyreactivity
21 | QVQLVESGGGLVQAGGSLRLSCAASGFIFPYDAMGWYRQAPGKERELVAAITYRDGSTYYADSVKGRFTISRDNAKNTVYLQMNSLKPEDTAVYYCAADRYVYWDLYGYWGQGTQVTVSS | low polyreactivity
22 | RVQLQESGGGLVQAGGSLRLSCAASGTIFIRGDMGWYRQAPGKEREFVATIDTGSNTYYADSEKGRFTISRDNATNAVYLHMNCLKPGDTAFYYCVVDYQLSGRLRYWGQGTQVTLSS | low polyreactivity
23 | QVQLVESGGGLVQAGGSLRLSCASSGITFDYYAMGWYRQAPGKERELVASISSDSSTYYADSVKGRFTISRDNAKNTVYLQMNSLKPEDTAVYYCNAGDTTFPFYYWGQGTQVTVSS | low polyreactivity
24 | QVQLVESGGGLVQAGGSLRLSCAASGRTFPAYAMGWYRQAPGKERELVAAITWSGGRTYYADSVKGRFTISRDNAKNTVYLQMNSLKPEDTAVYYCAAQYRVLWYSYYYWGQGTQVTVSS | high polyreactivity
25 | QVQLVESGGGLVQAGGSLRLSCAASGSTSDINAMGWYRQAPGKERELVAVITFSGGSTNYADSVKGRFTISRDNAKNTVYLQMNSLKPEDTAVYYCNADTLTTTRRFNPYDYWGQGTQVTVSS | low polyreactivity
26 | QVQLVESGGGLVQAGGSLRLSCAASGRTFYRKAMGWYRQAPGKERELVAAITYGGGSTYYADSVKGRFTISRDNAKNTVYLQMNSLKPEDTAVYYCNALRNVRTGRTQVLSYYWGQGTQVTVSS | high polyreactivity
27 | QVQRVESGGGLVQAGGSLRLSCAASGRIFVNYPIGWYRQAPGKERELVAAITSHGSTSYADSVKGRFTISRDNAKNTVYLQMNSLKPEDTAVYYCANDFFEHSPVSHTYSSSKYDYWGQGTQVTVSS | low polyreactivity
28 | QVQLVESGGGLVQAGGSLRLSCAASGSTLDGNAMGWYRQAPGKERELVAAISVSGGSTYYADSVKGRFTISRDNAKNTVYLQMNSLKPEDPAVYYCSTEWRPRYYGTEPFDSWGQGTQVTVSS | high polyreactivity
29 | QVQLVESGGGLVQAGGSLRLSCAASGRTFGVYMGWYRQAPGKERELVAVISSGDSTNYADSVKGRFTISRDNAKNTVYLQMNSLKPEDTAVYYCNAYGSDRLTLDDYWGQGTQVSVSS | low polyreactivity
30 | QVQLVETGGGLVQAGGSLRLSCAASGSTFGYYAMGWYRQAPGKERELVAAITSGGSTYYADSVKGRFTISRDNAKNSVFLQMNSLKPEDTAVYYCAATWYGFAYDYWGQGTQVTVSS | low polyreactivity
31 | QVQHVESGGGLVQAGGRLRLSCAASGRTFPRYAIGLYRQAPGKERELVAAISVLAGITYYADSVKGRFTISRDNAKNTVYLQMNSLKPEDTAVYYCAKDHWTTSYDEGDYWGQGPQVTVSS | low polyreactivity
32 | QVQLVESGGGLVQAGGSLRLSCAASGYIFPPNAMGWYRQAPGKDRELVAAIRRSTGSTYYADSVKGRFTISRDNAKNTVYLQMNSLKPEDTAVYYCAAYYGYITFGYTYEYWGQGSQVTVSS | high polyreactivity
